Assay results: IntAct's records for PubMed 22327296

B1: Transcription factor JunD (Homo sapiens), P17535 (parent)
chain: METPFYGDEALSGLGGGASGSGGSFASPGRLFPGAPPTAAAGSMMKKDALTLSLSEQVAAALKPAAAPPPTPLRADGAPSAAPPDGLLASPDLGLLKLASPELERLIIQSNGLVTTTPTSSQFLYPKVAASEEQEFAEGFVKALEDLHKQNQLGAGAAAAAAAAAAGGPSGTATGSAPPGELAPAAAAPEAPVYANLSSYAGGAGGAGGAATVAFAAEPVPFPPPPPPGALGPPRLAALKDEPQTVPDVPSFGESPPLSPIDMDTQERIKAERKRLRNRIAASKCRKRKLERISRLEEKVKTLKSQNTELASTASLLREQVAQLKQKVLSHVNSGCQLLPQHQVPAY

Variants of: B1
Conditions: with mk10_human MAPK10, P53779
mk10_human MAPK10, P53779, sequence (P53779 whole entry): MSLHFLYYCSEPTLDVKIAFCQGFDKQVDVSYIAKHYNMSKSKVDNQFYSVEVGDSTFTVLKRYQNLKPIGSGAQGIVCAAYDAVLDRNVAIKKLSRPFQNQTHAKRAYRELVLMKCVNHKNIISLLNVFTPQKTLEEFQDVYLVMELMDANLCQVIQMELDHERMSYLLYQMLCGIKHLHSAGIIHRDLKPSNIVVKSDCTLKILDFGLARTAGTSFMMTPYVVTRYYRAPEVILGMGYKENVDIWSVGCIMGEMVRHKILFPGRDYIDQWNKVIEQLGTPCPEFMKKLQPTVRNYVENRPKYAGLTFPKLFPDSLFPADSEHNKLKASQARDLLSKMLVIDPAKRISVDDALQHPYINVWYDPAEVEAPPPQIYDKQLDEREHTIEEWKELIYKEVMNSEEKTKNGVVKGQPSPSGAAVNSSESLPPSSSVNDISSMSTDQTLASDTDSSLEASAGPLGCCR

Variant | effect of a mutation on the interaction
METPFYGDEALSGLGGGASGSGGSFASPGRLFPGAPPTAAAGSMMKKDALTASASEQVAAALKPAAAPPPTPLRADGAPSAAPPDGLLASPDLGLLKLASPELERLIIQSNGLVTTTPTSSQFLYPKVAASEEQEFAEGFVKALEDLHKQNQLGAGAAAAAAAAAAGGPSGTATGSAPPGELAPAAAAPEAPVYANLSSYAGGAGGAGGAATVAFAAEPVPFPPPPPPGALGPPRLAALKDEPQTVPDVPSFGESPPLSPIDMDTQERIKAERKRLRNRIAASKCRKRKLERISRLEEKVKTLKSQNTELASTASLLREQVAQLKQKVLSHVNSGCQLLPQHQVPAY [L52A;L54A] | disrupting interaction strength
METPFYGDEALSGLGGGASGSGGSFASPGRLFPGAPPTAAAGSMMAADALTLSLSEQVAAALKPAAAPPPTPLRADGAPSAAPPDGLLASPDLGLLKLASPELERLIIQSNGLVTTTPTSSQFLYPKVAASEEQEFAEGFVKALEDLHKQNQLGAGAAAAAAAAAAGGPSGTATGSAPPGELAPAAAAPEAPVYANLSSYAGGAGGAGGAATVAFAAEPVPFPPPPPPGALGPPRLAALKDEPQTVPDVPSFGESPPLSPIDMDTQERIKAERKRLRNRIAASKCRKRKLERISRLEEKVKTLKSQNTELASTASLLREQVAQLKQKVLSHVNSGCQLLPQHQVPAY [K46A;K47A] | disrupting interaction strength
